Biological target: the molecule itself
Assay: crystal structure; AtHPPD-HPPA complex, hanging drop vapor diffusion, with CoCl2 and HPPA; reservoir 36% (w/v) PEG 400, 0.1 M NaCl, 0.1 M sodium acetate pH 5.0, 18°C; space group P 21, four molecules per asymmetric unit

B1: Arabidopsis thaliana 4-hydroxyphenylpyruvate dioxygenase (enzyme, UniProt P93836 1-445, looked up)
chain: MGHQNAAVSENQNHDDGAASSPGFKLVGFSKFVRKNPKSDKFKVKRFHHIEFWCGDATNVARRFSWGLGMRFSAKSDLSTGNMVHASYLLTSGDLRFLFTAPYSPSLSAGEIKPTTTASIPSFDHGSCRSFFSSHGLGVRAVAIEVEDAESAFSISVANGAIPSSPPIVLNEAVTIAEVKLYGDVVLRYVSYKAEDTEKSEFLPGFERVEDASSFPLDYGIRRLDHAVGNVPELGPALTYVAGFTGFHQFAEFTADDVGTAESGLNSAVLASNDEMVLLPINEPVHGTKRKSQIQTYLEHNEGAGLQHLALMSEDIFRTLREMRKRSSIGGFDFMPSPPPTYYQNLKKRVGDVLSDDQIKECEELGILVDRDDQGTLLQIFTKPLGDRPTIFIEIIQRVGCMMKDEEGKAYQSGGCGGFGKGNFSELFKSIEEYEKTLEAKQLVG
notes: 4-hydroxyphenylpyruvate dioxygenase, Arabidopsis thaliana, UniProtKB P93836, full-length protein in pET15b; Crystallised with cobalt(II) chloride and the substrate HPPA; also called AtHPPD; HPPD; source: E. coli BL21 (DE3), purified (Ni-NTA, anion exchange, size exclusion chromatography)
  binding result: binds

— publication PMC6750108, “Crystal Structure of 4-Hydroxyphenylpyruvate Dioxygenase in Complex with Substrate Reveals a New Starting Point for Herbicide Discovery” (Research, 2019)
